B1: YLR337C (protein, UniProt P37370 1-817, looked up)
Verprolin: MAGAPAPPPPPPPPALGGSAPKPAKSVMQGRDALLGDIRKGMKLKKAETNDRSAPIVGGGVVSSASGSSGTVSSKGPSMSAPPIPGMGAPQLGDILAGGIPKLKHINNNASTKPSPSASAPPIPGAVPSVAAPPIPNAPLSPAPAVPSIPSSSAPPIPDIPSSAAPPIPIVPSSPAPPLPLSGASAPKVPQNRPHMPSVRPAHRSHQRKSSNISLPSVSAPPLPSASLPTHVSNPPQAPPPPPTPTIGLDSKNIKPTDNAVSPPSSEVPAGGLPFLAEINARRSERGAVEGVSSTKIQTENHKSPSQPPLPSSAPPIPTSHAPPLPPTAPPPPSLPNVTSAPKKATSAPAPPPPPLPAAMSSASTNSVKATPVPPTLAPPLPNTTSVPPNKASSMPAPPPPPPPPPGAFSTSSALSASSIPLAPLPPPPPPSVATSVPSAPPPPPTLTTNKPSASSKQSKISSSSSSSAVTPGGPLPFLAEIQKKRDDRFVVGGDTGYTTQDKQEDVIGSSKDDNVRPSPISPSINPPKQSSQNGMSFLDEIESKLHKQTSSNAFNAPPPHTDAMAPPLPPSAPPPPITSLPTPTASGDDHTNDKSETVLGMKKAKAPALPGHVPPPPVPPVLSDDSKNNVPAASLLHDVLPSSNLEKPPSPPVAAAPPLPTFSAPSLPQQSVSTSIPSPPPVAPTLSVRTETESISKNPTKSPPPPPSPSTMDTGTSNSPSKNLKQRLFSTGGSTLQHKHNTHTNQPDVDVGRYTIGGSNSIVGAKSGNERIVIDDSRFKWTNVSQMPKPRPFQNKTKLYPSGKGSSVPLDLTLFT
B2: YGR229C (protein, UniProt P32566 1-505, looked up)
Cell wall assembly regulator …: MDLFKRKVKEWVYSLSTDDHYAEYNPDETPTFNMGKRLNSNNGQVNPSQMHLNSVDEEMSMGFQNGVPSNEDINIDEFTSTESNDGVSETLLAWRHIDFWTSEHNPDLNATLSDPCTQNDITHAEEDLEVSFPNPVKASFKIHDGQEDLESMTGTSGLFYGFQLMTLDQVVAMTQAWRNVAKNLNKRSQQGLSHVTSTGSSSSMERLNGNKFKLPNIPDQKSIPPNAVQPVYAHPAWIPLITDNAGNHIGVDLAPGPNGKYAQIITFGRDFDTKFVIAENWGEFLLSFANDLEAGNWYLVDDNDDYFSGDGELVFRDKKSNGPIQDYFEVLKRRTWIKYQENLRSQQQKSQPDTSLQEQKYVPASQKKVAAEQPSTLNAESIKGEDSGSADVQSVQDHESVKIVKTEPSEAETTTVNTESLGQAEHEIKADNVDIKQESERKEDEKQPKVEEKEHVENEHVTESAKKDDDVNKQTEEMNKKEENEIRSDDAKVEEAREEFENIAL
B3: YNL243W (protein, UniProt P33338 1-968, looked up)
Protein SLA2: MSRIDSDLQKALKKACSVEETAPKRKHVRACIVYTWDHQSSKAVFTTLKTLPLANDEVQLFKMLIVLHKIIQEGHPSALAEAIRDRDWIRSLGRVHSGGSSYSKLIREYVRYLVLKLDFHAHHRGFNNGTFEYEEYVSLVSVSDPDEGYETILDLMSLQDSLDEFSQIIFASIQSERRNTECKISALIPLIAESYGIYKFITSMLRAMHRQLNDAEGDAALQPLKERYELQHARLFEFYADCSSVKYLTTLVTIPKLPVDAPDVFLINDVDESKEIKFKKREPSVTPARTPARTPTPTPPVVAEPAISPRPVSQRTTSTPTGYLQTMPTGATTGMMIPTATGAANAIFPQATAQMQPDFWANQQAQFANEQNRLEQERVQQLQQQQAQQELFQQQLQKAQQDMMNMQLQQQNQHQNDLIALTNQYEKDQALLQQYDQRVQQLESEITTMDSTASKQLANKDEQLTALQDQLDVWERKYESLAKLYSQLRQEHLNLLPRFKKLQLKVNSAQESIQKKEQLEHKLKQKDLQMAELVKDRDRARLELERSINNAEADSAAATAAAETMTQDKMNPILDAILESGINTIQESVYNLDSPLSWSGPLTPPTFLLSLLESTSENATEFATSFNNLIVDGLAHGDQTEVIHCVSDFSTSMATLVTNSKAYAVTTLPQEQSDQILTLVKRCAREAQYFFEDLMSENLNQVGDEEKTDIVINANVDMQEKLQELSLAIEPLLNIQSVKSNKETNPHSELVATADKIVKSSEHLRVDVPKPLLSLALMIIDAVVALVKAAIQCQNEIATTTSIPLNQFYLKNSRWTEGLISAAKAVAGATNVLITTASKLITSEDNENTSPEQFIVASKEVAASTIQLVAASRVKTSIHSKAQDKLEHCSKDVTDACRSLGNHVMGMIEDDHSTSQQQQPLDFTSEHTLKTAEMEQQVEILKLEQSLSNARKRLGEIRRHAYYNQDDD
B4: YBL007C (protein, UniProt P32790 1-1244, looked up)
Actin cytoskeleton-regulatory …: MTVFLGIYRAVYAYEPQTPEELAIQEDDLLYLLQKSDIDDWWTVKKRVIGSDSEEPVGLVPSTYIEEAPVLKKVRAIYDYEQVQNADEELTFHENDVFDVFDDKDADWLLVKSTVSNEFGFIPGNYVEPENGSTSKQEQAPAAAEAPAATPAAAPASAAVLPTNFLPPPQHNDRARMMQSKEDQAPDEDEEGPPPAMPARPTATTETTDATAAAVRSRTRLSYSDNDNDDEEDDYYYNSNSNNVGNHEYNTEYHSWNVTEIEGRKKKKAKLSIGNNKINFIPQKGTPHEWSIDKLVSYDNEKKHMFLEFVDPYRSLELHTGNTTTCEEIMNIIGEYKGASRDPGLREVEMASKSKKRGIVQYDFMAESQDELTIKSGDKVYILDDKKSKDWWMCQLVDSGKSGLVPAQFIEPVRDKKHTESTASGIIKSIKKNFTKSPSRSRSRSRSKSNANASWKDDELQNDVVGSAAGKRSRKSSLSSHKKNSSATKDFPNPKKSRLWVDRSGTFKVDAEFIGCAKGKIHLHKANGVKIAVAADKLSNEDLAYVEKITGFSLEKFKANDGSSSRGTDSRDSERERRRRLKEQEEKERDRRLKERELYELKKARELLDEERSRLQEKELPPIKPPRPTSTTSVPNTTSVPPAESSNNNNSSNKYDWFEFFLNCGVDVSNCQRYTINFDREQLTEDMMPDINNSMLRTLGLREGDIVRVMKHLDKKFGRENIASIPTNATGNMFSQPDGSLNVATSPETSLPQQLLPQTTSPAQTAPSTSAETDDAWTVKPASKSESNLLSKKSEFTGSMQDLLDLQPLEPKKAAASTPEPNLKDLEPVKTGGTTVPAAPVSSAPVSSAPAPLDPFKTGGNNILPLSTGFVMMPMITGGDMLPMQRTGGFVVPQTTFGMQSQVTGGILPVQKTGNGLIPISNTGGAMMPQTTFGAAATVLPLQKTGGGLIPIATTGGAQFPQTSFNVQGQQQLPTGSILPVQKTANGLISANTGVSMPTVQRTGGTMIPQTSFGVSQQLTGGAMMTQPQNTGSAMMPQTSFNAVPQITGGAMMPQTSFNALPQVTGGAMMPLQRTGGALNTFNTGGAMIPQTSFSSQAQNTGGFRPQSQFGLTLQKTGGIAPLNQNQFTGGAMNTLSTGGVLQQQQPQTMNTFNTGGVMQELQMMTTFNTGGAMQQPQMMNTFNTDGIMQQPQMMNTFNTGGAMQQPQQQALQNQPTGFGFGNGPQQSRQANIFNATASNPFGF

What was measured:
Assay type in all cases: cell-based, Saccharomyces cerevisiae
[1] = test system: BBC1; assay: DHFR-PCA on solid medium, bait BBC1 (Fig. 1B); conditions: bait BBC1, label = prey; for medrep (log2 median colony size normalized to plate background, PCA score): 2-4 replicates; for Ratio (SH3-deleted/WT medrep): only significant differences showed, PPIs completely lost have a ratio of 0.1 and the gained PPIs 2.5
Text: (§1) Supplement 41467_2021_21873_MOESM8_ESM.xlsx, sheet "Fig1B" | column: medsize; medrep; Ratio; Score

[2] = test system: 575 putative partners (preys) of 22 WT SH3-containing proteins; assay: DHFR-PCA on solid medium, WT and SH3-deleted baits (Fig. 1B); parameters: key to Score: 0: SH3-independent; 1: SH3-dependent PPIs; 2: SH3-inhibited PPIs; conditions: for medrep (log2 median colony size normalized to plate background, PCA score): label = prey; for Ratio (SH3-deleted/WT medrep): only significant differences shown, PPIs completely lost have a ratio of 0.1, gained PPIs 2.5
Method in brief: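 Interactions scored by DHFR protein-fragment complementation on solid medium using robotic pinning; preys (DHFR F[3] fusions) arrayed in duplicate with control borders. Baits carried C-terminal DHFR F[1,2]-FLAG tags, tested as wild type and as SH3-deleted versions carrying a flexible Gly/Ser stuffer.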

[3] = test system: ABP1; assay: DHFR-PCA on solid medium, bait ABP1 (Fig. 1B); conditions: bait ABP1, label = prey; 2-4 replicates
Text: as §1

[4] = test system: BEM1-1; assay: DHFR-PCA on solid medium, bait BEM1-1 (Fig. 1B); conditions: bait BEM1-1, label = prey; for medrep (log2 median colony size normalized to plate background, PCA score): 2-8 replicates; for Ratio (SH3-deleted/WT medrep): only significant differences showed, PPIs completely lost have a ratio of 0.1 and the gained PPIs 2.5
Text: as §1

[5] = test system: BEM1-2; assay: DHFR-PCA on solid medium, bait BEM1-2 (Fig. 1B); conditions: bait BEM1-2, label = prey; for medrep (log2 median colony size normalized to plate background, PCA score): 2-8 replicates
Text: as §1

[6] = test system: Abp1 PPIs; assay: DHFR-PCA of Abp1 SH3-swapped baits (Fig. 2B-D, S2C, S2F); conditions: Fig2B; bait ABP1, label = prey; Replicates 4
Method in brief: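 Interactions were scored by DHFR protein-fragment complementation. DHFR F[1,2]-tagged Abp1 strains, whose SH3 was swapped for yeast or human ortholog domains, were crossed on YPD at 30 °C for 48 h with a 1536-format array of 575 prey-DHFR F[3] strains and 40 negatives, giving four replicates per pair. PCA selection lasted 4 days after double diploid selection.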

[7] = bait SLA1-2, DHFR-PCA, Replicates 4 (2 for YCR009C, YDR388W)
[8] = bait SLA1-3, DHFR-PCA, Replicates 4 (2 for YCR009C, YDR388W, YIL033C)

Row | Molecule | medrep (log2 median colony size normalized to plate background, PCA score) [1] | Ratio (SH3-deleted/WT medrep) [1] | medrep (log2 median colony size normalized to plate background, PCA score) [2, 7] | Score ([2]; bait SLA1-2, label = prey) | Ratio (SH3-deleted/WT medrep) ([2]; bait SLA1-2, label = prey) | medrep (log2 median colony size normalized to plate background, PCA score) [2, 8] | Score ([2]; bait SLA1-3, label = prey) | medrep (log2 median colony size normalized to plate background, PCA score) [3] | medrep (log2 median colony size normalized to plate background, PCA score) [4] | Ratio (SH3-deleted/WT medrep) [4] | medrep (log2 median colony size normalized to plate background, PCA score) [5] | Ratio (SH3-deleted/WT medrep) ([5]; only significant differences showed, PPIs completely lost have a ratio of 0.1 and the gained PPIs 2.5) | medrep (log2 median colony size normalized to plate background) [6]
1 | B1 | 2.429 | 0.57 | 2.095 | 1 | 0.4282 | 4.892 | 0 | 4.481 | – | – | – | – | –
2 | B2 | 2.755 | 0.1 | 3.075 | 1 | 0.1 | 3.075 | 0 | 3.977 | 1.341 | 0.1 | 1.341 | – | –
3 | B3 | 2.46 | 0.1 | 4.4709 | 0 | – | 4.4709 | 0 | 4.661 | 1.569 | 0.1 | 1.569 | 0.1 | –
4 | B4 | 2.803 | 0.1 | – | – | – | 4.843 | 0 | 4.393 | – | – | – | – | 4.393

Source: article PMC7954794, “Protein context shapes the specificity of SH3 domain-mediated interactions in vivo” (Nature Communications, 2021)
